Measurements published in paper PMC11054746, “GRPR-Antagonists Carrying DOTAGA-Chelator via Positively Charged Linkers: Perspectives for Prostate Cancer Theranostics” (Pharmaceutics, 2024).
Read-outs that look alike come from different tables or passages of the source.

Legend:
[1] = in vivo; parameters: species or system BALB/C nu/nu mice; details: BALB/C nu/nu, mouse, iv, total radioactivity; for tissue to tissue ratio at 4 h: Tumor-to-organ ratio
Experimental: (§1) All in vivo studies were performed following European guidelines on laboratory animal protection. The in vivo stability experiments were carried out in healthy male Swiss albino mice; the study protocol was approved by the Department of Agriculture and Veterinary Service of the Prefecture of Athens (protocol number #440448, 01-06-2021). The biodistribution, in vivo targeting specificity assay, and SPECT/CT imaging experiments were carried out on BALB/C nu/nu mice. The Ethics Committee for Animal Research in Uppsala (Sweden) approved the latter in vivo animal studies (permit number 00473/21). The BALB/C nu/nu mice were implanted with GRPR-positive prostate cancer xenografts by subcutaneous injection on the right hind leg of PC-3 cells suspended in PBS (7 × 10^6 cells/mouse) four weeks before the biodistribution studies.
(§2) The mice were iv injected with 40 pmol peptide (30 kBq in a total volume of 100 μL 1% bovine serum albumin (BSA) in PBS). […] At the indicated time points, mice were euthanized under anesthesia. The organs of interest were collected, weighed, and the sample radioactivity content was measured on the gamma counter. The percentage of injected activity per gram (%IA/g) of collected tumors, organs and tissues, the %IA for the remaining gastrointestinal tract and carcass, as well as the tumor-to-organ ratios (T/O) were calculated.

[2] = system: PC-3 xenografts; test: in vivo; parameters: species or system BALB/C nu/nu mice; details: mouse; for Kidneys uptake: BALB/C nu/nu
Experimental: as §1, §2

[3] = Radiochemical stability: indium release in PBS or with EDTA excess, by iTLC; type: physicochemical; details: room temperature, 0.2 M citric acid, mean ± sd, n = 3
Experimental: The radiochemical yield was analyzed with instant thin layer chromatography (iTLC) strips (Agilent Technologies, Santa Clara, CA, USA), using 0.2 M citric acid buffer as a mobile phase (Rf = 0 for the radiolabeled peptide and Rf = 1 for free indium). The iTLC results were analyzed using Cyclone® Plus Phosphorimager (PerkinElmer, Hägersten, Sweden). The radiochemical stability was determined by incubating the radiolabeled compounds with phosphate-buffered saline (PBS) or a 1000-fold molar excess of ethylenediaminetetraacetic acid (EDTA) for 1 h at room temperature. The percentage of indium release was assessed by iTLC using 0.2 M citric acid as mobile phase. Stability tests were performed in triplicate for each compound.

[4] = system: PC-3 cells; test: Cellular internalization; type: cell-based, human; details: 1 nM, acid wash, mean of 3 dishes ± sd, normalized to maximum cell association at 24 h
Experimental: For the cellular internalization assay, PC-3 cells (1 × 10^6 cells/dish) were used. The cells were incubated with 1 mL (1 nM) of solution containing the radiolabeled peptide under evaluation. At the 4 h and 24 h time points, the cells were treated with an acid wash (0.2 M glycine buffer with 0.15 M NaCl and 4 M urea, pH 2) for 5 min on ice to remove the membrane-bound peptide. After collection of acid fractions, the cells were treated with 1 M NaOH for at least 30 min and the cell debris were scraped and collected. The activity content in samples was measured using the gamma counter.

[5] = target: T1, human GRPR (Homo sapiens, UniProt P30550); test: Affinity measurements in real time (LigandTracer) on PC-3 cells; type: binding; details: room temperature, 1:2 fitting interaction model
T1 construct: host or cells: PC-3 human prostate adenocarcinoma cells
T1 sequence (P30550 whole entry): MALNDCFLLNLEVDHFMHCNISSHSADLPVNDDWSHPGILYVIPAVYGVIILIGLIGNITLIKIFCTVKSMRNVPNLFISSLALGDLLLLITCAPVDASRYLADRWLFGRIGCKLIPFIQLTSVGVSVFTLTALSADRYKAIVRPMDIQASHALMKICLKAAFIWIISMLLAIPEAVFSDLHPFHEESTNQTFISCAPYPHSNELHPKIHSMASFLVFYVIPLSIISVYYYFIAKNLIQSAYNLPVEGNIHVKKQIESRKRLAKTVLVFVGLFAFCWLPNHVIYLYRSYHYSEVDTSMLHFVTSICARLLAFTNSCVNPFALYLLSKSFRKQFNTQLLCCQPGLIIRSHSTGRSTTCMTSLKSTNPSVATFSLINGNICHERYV
Experimental: The association curves were recorded at 1 nM and 3 nM of the radiolabeled peptides for 300 min. After reaching the plateau, the medium containing the radioligand was replaced with fresh medium and the dissociation curve was measured for about 16 h. The obtained sensorgrams were analyzed using TracerDrawer (Ridgeview Instruments AB, Uppsala, Sweden) and the dissociation constants (KD) were calculated.

[6] = 40 pmol, Carcass (whole body) uptake
[7] = 40 pmol, GI (gastrointestinal tract, GIT) uptake

Structure (SMILES): CC(C)C[C@H](NC(=O)C[C@H](O)[C@H](CC(C)C)NC(=O)[C@H](Cc1c[nH]cn1)NC(=O)CN(C)C(=O)[C@@H](NC(=O)[C@H](C)NC(=O)[C@H](Cc1c[nH]c2ccccc12)NC(=O)[C@H](CCC(N)=O)NC(=O)[C@@H](Cc1ccccc1)NC(=O)COCCOCCNC(=O)CCC(C(=O)O)N1CCN(CC(=O)O)CCN(CC(=O)O)CCN(CC(=O)O)CC1)C(C)C)C(N)=O (stereo partly drawn) [[^111In]In-AU-RM26-M1, [^111In]In-DOTAGA-PEG2-[Sar^11]RM26, metal not drawn, reference compound]
- tissue uptake at 4 h ([1]; 40 pmol, Blood uptake): 0.04 ± 0.01 %ID/g
- tissue uptake at 4 h ([1]; 40 pmol, Bone uptake): 0.05 ± 0.01 %ID/g
- tissue uptake dose at 4 h [1, 6]: 1.3 ± 0.5 %ID
- tissue uptake dose at 4 h [1, 7]: 0.9 ± 0.1 %ID
- tissue uptake at 4 h ([1]; 40 pmol, Kidneys uptake): 6.4 ± 0.6 %ID/g
- tissue uptake at 4 h ([1]; 40 pmol, Liver uptake): 0.2 ± 0.1 %ID/g
- tissue uptake at 4 h ([1]; 40 pmol, Lungs uptake): 0.08 ± 0.05 %ID/g
- tissue uptake at 4 h ([1]; 40 pmol, Muscle uptake): 0.04 ± 0.02 %ID/g
- tissue uptake at 4 h ([1]; 40 pmol, Pancreas uptake): 0.2 ± 0.1 %ID/g
- tissue uptake at 4 h ([1]; 40 pmol, Small Int uptake): 0.1 ± 0.04 %ID/g
- tissue uptake at 4 h ([1]; 40 pmol, Spleen uptake): 0.08 ± 0.02 %ID/g
- tissue to tissue ratio at 4 h ([1]; 40 pmol, Blood): 133 ± 26
- tissue to tissue ratio at 4 h ([1]; 40 pmol, Bone): 117 ± 16
- tissue to tissue ratio at 4 h ([1]; 40 pmol, Kidneys): 0.9 ± 0.2
- tissue to tissue ratio at 4 h ([1]; 40 pmol, Liver): 39 ± 5
- tissue to tissue ratio at 4 h ([1]; 40 pmol, Lungs): 81 ± 25
- tissue to tissue ratio at 4 h ([1]; 40 pmol, Muscle): 234 ± 154
- tissue to tissue ratio at 4 h ([1]; 40 pmol, Pancreas): 27 ± 4
- tissue to tissue ratio at 4 h ([1]; 40 pmol, Small Int): 57 ± 7
- tissue to tissue ratio at 4 h ([1]; 40 pmol, Spleen): 72 ± 9.5
- Kidneys uptake ([2]; iv, 40 pmol, 4 h): ~ 6.5 %IA/g
- Tumor uptake ([2]; iv, 40 pmol, 4 h): 6 ± 2 %IA/g

Structure (SMILES): CC(C)C[C@H](NC(=O)C[C@H](O)[C@H](CC(C)C)NC(=O)[C@H](Cc1c[nH]cn1)NC(=O)CN(C)C(=O)[C@@H](NC(=O)[C@H](C)NC(=O)[C@H](Cc1c[nH]c2ccccc12)NC(=O)[C@H](CCC(N)=O)NC(=O)[C@@H](Cc1ccccc1)NC(=O)CN1CCC(NC(=O)COCCOCCNC(=O)CCC(C(=O)O)N2CCN(CC(=O)O)CCN(CC(=O)O)CCN(CC(=O)O)CC2)CC1)C(C)C)C(N)=O (stereo partly drawn) [[^111In]In-AU-RM26-M2, metal not drawn]
- released [111In]In3+, ×1000 EDTA (1 h) ([3]; 1000-fold molar excess of EDTA): 5.7 ± 0.7% (3)
- released [111In]In3+, PBS ([3]; incubation in PBS, 1 h): 5.7 ± 0.2% (3)
- internalized fraction at 24 h [4]: 23 ± 2%
- tissue uptake at 4 h ([1]; 40 pmol, Blood uptake): 0.003 ± 0.002 %ID/g
- tissue uptake at 24 h ([1]; 40 pmol, Blood uptake): 0.01 ± 0.002 %ID/g
- tissue uptake at 4 h ([1]; 40 pmol, Bone uptake): 0.05 ± 0.03 %ID/g
- tissue uptake at 24 h ([1]; 40 pmol, Bone uptake): 0.04 ± 0.02 %ID/g
- tissue uptake dose at 4 h [1, 6]: 0.8 ± 0.1 %ID
- tissue uptake dose at 24 h ([1]; 40 pmol, Carcass uptake): 0.5 ± 0.2 %ID
- tissue uptake dose at 4 h [1, 7]: 0.8 ± 0.5 %ID
- tissue uptake dose at 24 h [1, 7]: 0.13 ± 0.03 %ID
- tissue uptake at 4 h ([1]; 40 pmol, Kidneys uptake): 5 ± 1 %ID/g
- tissue uptake at 24 h ([1]; 40 pmol, Kidneys uptake): 4.1 ± 0.4 %ID/g
- tissue uptake at 4 h ([1]; 40 pmol, Liver uptake): 0.12 ± 0.01 %ID/g
- tissue uptake at 24 h ([1]; 40 pmol, Liver uptake): 0.11 ± 0.01 %ID/g
- tissue uptake at 4 h ([1]; 40 pmol, Lungs uptake): 0.05 ± 0.01 %ID/g
- tissue uptake at 24 h ([1]; 40 pmol, Lungs uptake): 0.05 ± 0.02 %ID/g
- tissue uptake at 4 h ([1]; 40 pmol, Muscle uptake): 0.02 ± 0.01 %ID/g
- tissue uptake at 24 h ([1]; 40 pmol, Muscle uptake): 0.02 ± 0.01 %ID/g
- tissue uptake at 4 h ([1]; 40 pmol, Pancreas uptake): 0.37 ± 0.08 %ID/g
- tissue uptake at 24 h ([1]; 40 pmol, Pancreas uptake): 0.15 ± 0.03 %ID/g
- tissue uptake at 4 h ([1]; 40 pmol, Small Int uptake): 0.1 ± 0.06 %ID/g
- tissue uptake at 24 h ([1]; 40 pmol, Small Int uptake): 0.06 ± 0.03 %ID/g
- tissue uptake at 4 h ([1]; 40 pmol, Spleen uptake): 0.07 ± 0.02 %ID/g
- tissue uptake at 24 h ([1]; 40 pmol, Spleen uptake): 0.07 ± 0.01 %ID/g
- tissue uptake at 4 h ([1]; 40 pmol, Tumor uptake): 7 ± 2 %ID/g
- tissue uptake at 24 h ([1]; 40 pmol, Tumor uptake): 4.9 ± 0.7 %ID/g
- tissue uptake dose at 4 h ([1]; Carcass uptake, Block): 1 ± 0.5 %ID
- tissue uptake dose at 4 h ([1]; GI (gastrointestinal tract, GIT) uptake, Block): 0.46 ± 0.03 %ID
- kidney uptake at 24 h pi retained as % of the 4 h renal value [2]: > 80%
- pancreas uptake at 24 h pi as % of the initial 4 h uptake [2]: 40%
- tumor uptake at 24 h pi as % of the 4 h value [2]: 70%

Structure (SMILES): CC(C)C[C@H](NC(=O)C[C@H](O)[C@H](CC(C)C)NC(=O)[C@H](Cc1c[nH]cn1)NC(=O)CN(C)C(=O)[C@@H](NC(=O)[C@H](C)NC(=O)[C@H](Cc1c[nH]c2ccccc12)NC(=O)[C@H](CCC(N)=O)NC(=O)[C@@H](Cc1ccccc1)NC(=O)[C@H](CCCNC(=N)N)NC(=O)COCCOCCNC(=O)CCC(C(=O)O)N1CCN(CC(=O)O)CCN(CC(=O)O)CCN(CC(=O)O)CC1)C(C)C)C(N)=O (stereo partly drawn) [[^111In]In-AU-RM26-M3, metal not drawn]
- tissue uptake at 4 h ([1]; 40 pmol, Blood uptake): 0.024 ± 0.002 %ID/g
- tissue uptake at 4 h ([1]; 40 pmol, Bone uptake): 0.06 ± 0.01 %ID/g
- tissue uptake dose at 4 h [1, 6]: 1.7 ± 0.3 %ID
- tissue uptake dose at 4 h [1, 7]: 1.3 ± 0.9 %ID
- tissue uptake at 4 h ([1]; 40 pmol, Kidneys uptake): 3.4 ± 0.2 %ID/g
- tissue uptake at 4 h ([1]; 40 pmol, Liver uptake): 0.17 ± 0.01 %ID/g
- tissue uptake at 4 h ([1]; 40 pmol, Lungs uptake): 0.12 ± 0.01 %ID/g
- tissue uptake at 4 h ([1]; 40 pmol, Muscle uptake): 0.03 ± 0.01 %ID/g
- tissue uptake at 4 h ([1]; 40 pmol, Pancreas uptake): 0.06 ± 0.01 %ID/g
- tissue uptake at 4 h ([1]; 40 pmol, Small Int uptake): 0.08 ± 0.03 %ID/g
- tissue uptake at 4 h ([1]; 40 pmol, Spleen uptake): 0.08 ± 0.01 %ID/g
- tissue uptake at 4 h ([1]; 40 pmol, Tumor uptake): 2.5 ± 0.6 %ID/g
- tissue to tissue ratio at 4 h ([1]; 40 pmol, Blood): 104
- tissue to tissue ratio at 4 h ([1]; 40 pmol, Bone): 39 ± 8
- tissue to tissue ratio at 4 h ([1]; 40 pmol, Kidneys): 0.7 ± 0.2
- tissue to tissue ratio at 4 h ([1]; 40 pmol, Liver): 15 ± 4.5
- tissue to tissue ratio at 4 h ([1]; 40 pmol, Lungs): 33 ± 22
- tissue to tissue ratio at 4 h ([1]; 40 pmol, Muscle): 75 ± 18
- tissue to tissue ratio at 4 h ([1]; 40 pmol, Pancreas): 45 ± 15
- tissue to tissue ratio at 4 h ([1]; 40 pmol, Small Int): 35 ± 15
- tissue to tissue ratio at 4 h ([1]; 40 pmol, Spleen): 31 ± 9
- Kidneys uptake ([2]; iv, 40 pmol, 4 h): ~ 3.5 %IA/g
- Kd ([5]; read-out: KD1): 0.245 nM
- Kd ([5]; read-out: KD2): 1.4 nM
